For experiment [1], the target named is HLA-A*01:01. In words: IEDB peptide-MHC binding, purified MHC/direct/fluorescence; filed as Kd, often an IC50 or EC50 that approximates it; ≥ and ≤ were set here for values at or beyond the usual limits of such assays.
Experiment [2] addresses HLA-B*58:01. The experiment is described as above.
The target of experiment [3] is HLA-B*07:02. Described as above.
For experiment [4], the target named is HLA-B*15:17. The description is as above.
Experiment [5] deals with HLA-B*40:01. The description is as above.
The target in experiment [6] is HLA-B*46:01. The description is as above.
In experiment [7] the target is HLA-A*26:01. Described as above. The conditions noted are these: source organism: Influenza A virus(A/swine/Shandong/fNY/2003(H9N2)).
Experiment [8] deals with HLA-A*31:01. The experiment is described as above.
Experiment [9] concerns the target HLA-A*11:01. The experiment is described as above.
The target in experiment [10] is HLA-B*08:01. The description is as above.
The target of experiment [11] is HLA-B*15:01. The description is as above.
The target of experiment [12] is HLA-B*57:01. The description is as above.
For experiment [13], the target named is HLA-B*27:05. The experiment is described as above.
The target in experiment [14] is HLA-B*18:01. Described as above.
In experiment [15] the target is HLA-A*02:01. Described as above.
Experiment [16] has as its target HLA-B*48:01. The description is as above.
Experiment [17] addresses HLA-A*03:01. The description is as above.
Experiment [18] deals with HLA-A*69:01. Described as above.
Experiment [19] concerns the target HLA-B*15:09. The experiment is described as follows: IEDB peptide-MHC binding, purified MHC/competitive/fluorescence; filed as Kd, often an IC50 or EC50 that approximates it; ≥ and ≤ were set here for values at or beyond the usual limits of such assays.
In experiment [20] the target is HLA-B*51:01. Described as above. The conditions noted are these: source organism: Influenza A virus H3N2.
For experiment [21], the target named is HLA-C*04:01. The experiment is described as follows: IEDB peptide-MHC binding, purified MHC/direct/fluorescence; filed as Kd, often an IC50 or EC50 that approximates it; ≥ and ≤ were set here for values at or beyond the usual limits of such assays.
Experiment [22] concerns the target HLA-B*48:01. The experiment is described as follows: IEDB peptide-MHC binding, purified MHC/competitive/fluorescence; filed as Kd, often an IC50 or EC50 that approximates it; ≥ and ≤ were set here for values at or beyond the usual limits of such assays. The settings on record: source organism: Cryptosporidium parvum Iowa II.
The target of experiment [23] is HLA-A*68:02. In words: IEDB peptide-MHC binding, purified MHC/direct/fluorescence; filed as Kd, often an IC50 or EC50 that approximates it; ≥ and ≤ were set here for values at or beyond the usual limits of such assays.
Experiment [24] concerns the target HLA-B*08:03. Described as above. The conditions noted are these: source organism: Vibrio vulnificus CMCP6.
For experiment [25], the target named is HLA-A*26:03. The description is as above.
In experiment [26] the target is HLA-A*26:02. The experiment is described as above. The settings on record: source organism: Vibrio vulnificus CMCP6.
For experiment [27], the target named is HLA-C*08:02. The description is as above. The settings on record: source organism: human gammaherpesvirus 4.
The target in experiment [28] is HLA-B*39:01. In words: IEDB peptide-MHC binding, purified MHC/competitive/fluorescence; filed as Kd, often an IC50 or EC50 that approximates it; ≥ and ≤ were set here for values at or beyond the usual limits of such assays.
Experiment [29] deals with HLA-B*15:17. The experiment is described as above. The conditions noted are these: source organism: Escherichia coli 536.
Experiment [30] concerns the target HLA-A*68:02. Described as above. The conditions noted are these: source organism: Escherichia coli 536.
In experiment [31] the target is HLA-A*26:02. Described as above. The settings on record: source organism: Escherichia coli 536.
In experiment [32] the target is HLA-A*02:01. The description is as above. The settings on record: source organism: Escherichia coli 536.
The target of experiment [33] is HLA-A*24:03. In words: IEDB peptide-MHC binding, purified MHC/direct/fluorescence; filed as Kd, often an IC50 or EC50 that approximates it; ≥ and ≤ were set here for values at or beyond the usual limits of such assays. The conditions noted are these: source organism: Vibrio vulnificus YJ016.
For experiment [34], the target named is HLA-A*24:02. Described as above. The conditions noted are these: source organism: Vibrio vulnificus YJ016.
Experiment [35] deals with HLA-A*23:01. The description is as above. The conditions noted are these: source organism: Vibrio vulnificus YJ016.
Experiment [36] concerns the target HLA-B*08:02. The description is as above. The conditions noted are these: source organism: Vibrio vulnificus YJ016.
For experiment [37], the target named is HLA-A*02:06. The experiment is described as follows: IEDB peptide-MHC binding, purified MHC/competitive/fluorescence; filed as Kd, often an IC50 or EC50 that approximates it; ≥ and ≤ were set here for values at or beyond the usual limits of such assays. The settings on record: source organism: Vibrio vulnificus YJ016.
The target of experiment [38] is HLA-B*08:01. The experiment is described as above. The conditions noted are these: source organism: Vibrio vulnificus YJ016.
[39] abbreviates: source organism: Influenza A virus (A/SW/MN/12883/00(H1N2)).
Where [40] appears, read: source organism: Vibrio cholerae.
Setting [41] is: source organism: Vibrio vulnificus CMCP6.
The mark [42] stands for this setting: source organism: Escherichia coli O157:H7.
Where [43] appears, read: source organism: Escherichia coli 536.
Where [44] appears, read: source organism: Vibrio vulnificus YJ016.

For FPNEVGARI, the Kd in experiment [1] (setting [39]) is no less than 20 µM; in experiment [2] (setting [39]), no less than 20 µM; in [3] (setting [39]) it was 0.066 µM; in experiment [4] (setting [39]), no less than 20 µM; in experiment [5] (setting [39]) it was no less than 20 µM; in experiment [6] (setting [39]), no less than 20 µM. Further, the Kd in experiment [7] is no less than 20 µM; in [8] (setting [39]) it was no less than 20 µM; in experiment [9] (setting [39]), no less than 20 µM; in [10] (source organism: Influenza A virus(A/swine/Shandong/fNY/2003(H9N2))) it was 3.05 µM; in experiment [11] (setting [39]) it was no less than 20 µM; in [12] (setting [39]), no less than 20 µM. For the same sequence, the Kd in [13] (setting [39]) was no less than 20 µM; in experiment [14] (setting [39]) it was no less than 20 µM; in experiment [15] (setting [39]) it was no less than 20 µM; in experiment [16] (setting [39]), no less than 20 µM; in experiment [17] (setting [39]), no less than 20 µM; in experiment [18] (setting [39]) it was 0.0038 µM. Besides, the Kd in experiment [19] (source organism: Influenza A virus H3N2) worked out at 1.13 µM; in experiment [20], 0.352 µM.
For the sequence IQNDLITEF, the Kd in experiment [21] (source organism: Vaccinia virus Copenhagen) is no less than 20 µM.
IQNEIMKPL came in with a dissociation constant Kd in experiment [22] of 0.502 µM.
For KGHLPLLDK, the Kd in experiment [1] (setting [40]), in experiment [2] (setting [40]), in [3] (setting [40]), in experiment [4] (setting [40]), in experiment [5] (setting [40]) and in [23] (setting [40]) was no less than 20 µM each time. Further, the dissociation constant (Kd) in experiment [6] (setting [40]) was no less than 20 µM; in [24], no less than 20 µM; in experiment [25] (setting [41]) it was no less than 20 µM; in experiment [8] (setting [40]), 3.98 µM; in [10] (setting [41]), no less than 20 µM; in experiment [26], no less than 20 µM. Moreover, the equilibrium dissociation constant (Kd) in experiment [11] (setting [40]) is no less than 20 µM; in experiment [12] (setting [40]), no less than 20 µM; in [13] (setting [40]) it was no less than 20 µM; in [15] (setting [40]) it was no less than 20 µM; in experiment [16] (setting [40]) it was no less than 20 µM; in [17] (setting [40]), 0.0555 µM. Moreover, the Kd in [18] (setting [40]) was no less than 20 µM.
In the case of RSDEYVAYY, the Kd in experiment [27] was 0.481 µM; in [21] (source organism: human gammaherpesvirus 4), no less than 20 µM.
As to VMAASGAPF, the Kd in [1] (setting [42]) was no less than 20 µM; in experiment [3] (setting [42]) it was 0.149 µM; in [6] (setting [42]) it was 1.34 µM; in experiment [8] (setting [42]), no less than 20 µM; in [9] (setting [42]), no less than 20 µM; in experiment [11] (setting [42]), 0.019 µM. Besides, the Kd in experiment [12] (setting [42]), in experiment [13] (setting [42]), in experiment [16] (setting [42]), in experiment [18] (setting [42]), in experiment [19] (setting [43]) and in [28] (setting [43]) was no less than 20 µM in each case. Further, the equilibrium dissociation constant (Kd) in [29] is 0.214 µM; in experiment [30] it was no less than 20 µM; in experiment [31] it was no less than 20 µM; in [32] it was no less than 20 µM.
As to WHQARFEEL, the Kd in [33] was 0.145 µM; in experiment [1] (setting [44]) it was no less than 20 µM; in [34], 8.8 µM; in experiment [2] (setting [44]) it was no less than 20 µM; in experiment [3] (setting [44]), no less than 20 µM; in experiment [4] (setting [44]) it was no less than 20 µM. Further, the Kd in experiment [23] (setting [44]), in [25] (setting [44]), in [8] (setting [44]), in experiment [9] (setting [44]), in experiment [11] (setting [44]) and in experiment [12] (setting [44]) was no less than 20 µM in each case. For the same sequence, the Kd in [13] (setting [44]) is no less than 20 µM; in experiment [14] (setting [44]) it was no less than 20 µM; in experiment [15] (setting [44]) it was no less than 20 µM; in experiment [35], 1.7 µM; in experiment [17] (setting [44]), no less than 20 µM; in experiment [36] it was no less than 20 µM. Further, the Kd in [18] (setting [44]) was no less than 20 µM; in experiment [37], no less than 20 µM; in experiment [19] (setting [44]), 0.0229 µM; in [28] (setting [44]) it was 0.0179 µM; in [38], no less than 20 µM.
Sequence WYDWQQVPF yielded a Kd in [21] (source organism: West Nile virus) of 0.007 µM.

The record behind these values is the Immune Epitope Database (IEDB).
